The text below walks through data of patent publication US20220289795, “EFFICIENT METHOD FOR PREPARING PPR PROTEIN AND USE OF THE SAME” (EditForce, Inc., published 2022).

Where a chain is given by its changes, count along the chain named.

In data set [1] the test system is v2_PPR2 (Artificial Sequence). Briefly: ELONA.
Data set [2] relates to v2_PPR3 (Artificial Sequence). Briefly: ELONA.
Data set [3] relates to v2_PPR1 (Artificial Sequence). The experiment in a line: ELONA.
The subject of data set [4] is v2_PPR5 (Artificial Sequence). Briefly: ELONA.
For data set [5], the target named is T1, v3.1_PPR6 (Artificial Sequence).
T1 chain: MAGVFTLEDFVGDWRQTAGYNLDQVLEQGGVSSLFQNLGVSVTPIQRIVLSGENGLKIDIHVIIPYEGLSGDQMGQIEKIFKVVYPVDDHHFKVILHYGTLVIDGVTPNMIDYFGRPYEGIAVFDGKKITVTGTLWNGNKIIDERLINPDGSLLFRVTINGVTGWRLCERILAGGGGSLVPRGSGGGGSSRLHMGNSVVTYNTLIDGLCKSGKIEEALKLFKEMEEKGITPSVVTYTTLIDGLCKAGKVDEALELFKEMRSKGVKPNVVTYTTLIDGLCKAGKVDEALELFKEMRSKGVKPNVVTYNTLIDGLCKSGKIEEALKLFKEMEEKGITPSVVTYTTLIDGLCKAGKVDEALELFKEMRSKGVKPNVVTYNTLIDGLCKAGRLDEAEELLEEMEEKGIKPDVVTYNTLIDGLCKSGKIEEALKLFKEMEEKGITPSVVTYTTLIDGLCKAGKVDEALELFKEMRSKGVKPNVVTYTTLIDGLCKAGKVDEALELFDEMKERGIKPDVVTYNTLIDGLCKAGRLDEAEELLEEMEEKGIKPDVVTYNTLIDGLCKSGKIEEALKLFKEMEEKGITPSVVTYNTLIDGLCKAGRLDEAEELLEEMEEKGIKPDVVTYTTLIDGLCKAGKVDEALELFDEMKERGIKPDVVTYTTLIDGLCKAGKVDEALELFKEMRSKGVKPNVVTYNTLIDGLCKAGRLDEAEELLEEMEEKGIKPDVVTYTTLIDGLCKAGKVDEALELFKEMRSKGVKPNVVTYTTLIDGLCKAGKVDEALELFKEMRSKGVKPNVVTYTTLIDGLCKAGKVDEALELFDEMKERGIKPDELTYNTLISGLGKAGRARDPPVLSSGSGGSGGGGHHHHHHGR
Briefly: ELONA; RPB-ELISA. As to conditions: tags: luciferase fusion; label: 5'-biotin. In general terms: An ELISA detects its analyte on a solid surface through an enzyme-linked reagent.

Data set [6] has as its target T2, NL_v2_PPR9 (Artificial Sequence).
T2 chain: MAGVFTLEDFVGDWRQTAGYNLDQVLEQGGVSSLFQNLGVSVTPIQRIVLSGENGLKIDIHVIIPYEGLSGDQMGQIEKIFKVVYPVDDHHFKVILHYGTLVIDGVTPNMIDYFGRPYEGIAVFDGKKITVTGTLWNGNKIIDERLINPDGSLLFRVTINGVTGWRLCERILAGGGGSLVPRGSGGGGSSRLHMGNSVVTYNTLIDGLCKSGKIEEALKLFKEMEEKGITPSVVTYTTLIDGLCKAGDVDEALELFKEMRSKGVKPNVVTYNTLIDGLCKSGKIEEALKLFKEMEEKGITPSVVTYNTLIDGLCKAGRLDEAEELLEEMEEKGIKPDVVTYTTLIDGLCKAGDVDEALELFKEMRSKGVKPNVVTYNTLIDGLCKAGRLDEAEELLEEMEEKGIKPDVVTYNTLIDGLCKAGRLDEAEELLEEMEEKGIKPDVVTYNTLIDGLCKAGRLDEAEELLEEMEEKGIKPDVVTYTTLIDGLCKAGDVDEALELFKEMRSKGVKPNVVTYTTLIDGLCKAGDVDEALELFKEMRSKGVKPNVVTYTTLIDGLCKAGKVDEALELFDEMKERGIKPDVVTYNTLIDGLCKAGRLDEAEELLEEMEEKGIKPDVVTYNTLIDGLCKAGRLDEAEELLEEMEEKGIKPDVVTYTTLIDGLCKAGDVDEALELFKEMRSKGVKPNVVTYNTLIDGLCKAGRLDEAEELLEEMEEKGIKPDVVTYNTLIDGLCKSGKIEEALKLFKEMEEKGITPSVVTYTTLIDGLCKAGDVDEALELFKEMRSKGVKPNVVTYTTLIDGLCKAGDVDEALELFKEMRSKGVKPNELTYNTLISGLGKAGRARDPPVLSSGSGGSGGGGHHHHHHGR
Briefly: ELONA; RPB-ELISA. As to conditions: tags: N-term luciferase, C-term 6xHis; label: 5'-biotin.

For data set [7], the target named is T3, v3.1_PPR9 (Artificial Sequence).
T3 chain: T2 chain with D248K, D353K, D493K, D528K, D668K, D773K, D808K
Briefly: ELONA; RPB-ELISA. The following applies: tags: luciferase fusion; label: 5'-biotin.

Data set [8] concerns the target T4, NL_v2_PPR7 (Artificial Sequence).
T4 chain: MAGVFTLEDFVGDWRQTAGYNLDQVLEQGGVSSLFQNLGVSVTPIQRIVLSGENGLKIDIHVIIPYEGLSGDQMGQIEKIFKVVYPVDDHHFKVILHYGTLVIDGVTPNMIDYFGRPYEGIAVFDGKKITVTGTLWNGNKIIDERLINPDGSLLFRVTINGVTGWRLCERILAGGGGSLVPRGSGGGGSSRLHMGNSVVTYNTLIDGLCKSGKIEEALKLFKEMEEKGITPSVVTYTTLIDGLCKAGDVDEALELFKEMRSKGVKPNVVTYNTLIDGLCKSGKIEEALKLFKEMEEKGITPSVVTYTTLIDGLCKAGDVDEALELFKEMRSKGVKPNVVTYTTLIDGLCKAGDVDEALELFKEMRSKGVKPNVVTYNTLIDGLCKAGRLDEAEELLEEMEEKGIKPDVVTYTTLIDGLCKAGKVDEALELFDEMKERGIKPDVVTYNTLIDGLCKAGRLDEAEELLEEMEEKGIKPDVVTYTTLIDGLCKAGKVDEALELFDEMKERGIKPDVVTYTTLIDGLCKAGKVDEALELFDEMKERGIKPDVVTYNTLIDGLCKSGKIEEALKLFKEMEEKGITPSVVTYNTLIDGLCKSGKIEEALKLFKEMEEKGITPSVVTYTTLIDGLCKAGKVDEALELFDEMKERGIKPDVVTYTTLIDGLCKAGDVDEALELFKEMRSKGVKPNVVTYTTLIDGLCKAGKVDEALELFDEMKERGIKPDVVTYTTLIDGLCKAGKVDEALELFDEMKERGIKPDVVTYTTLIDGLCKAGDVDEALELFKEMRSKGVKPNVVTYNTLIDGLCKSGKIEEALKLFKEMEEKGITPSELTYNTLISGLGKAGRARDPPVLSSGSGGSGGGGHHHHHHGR
The experiment in a line: ELONA; RPB-ELISA. The following applies: tags: N-term luciferase, C-term 6xHis; label: 5'-biotin.

Data set [9] has as its target T5, v3.1_PPR7 (Artificial Sequence).
T5 chain: T4 chain with D248K, D318K, D353K, D668K, D773K
Briefly: ELONA; RPB-ELISA. As to conditions: tags: luciferase fusion; label: 5'-biotin.

In [1] (RPB-ELISA), GAGAGGAAGCCUGAGAGU [T_2 (in RNA_2)] registered a binding signal of 5.7e+07 luminescence. As to CUGAGUCAUAACCAGCCU [T_3 (in RNA_3)], in [2] (RPB-ELISA), the binding signal is 3.3e+07 luminescence. On to GAAUGAACUCUUCCGGGA [T_1 (in RNA_1)], for which the binding signal (log2 luminescence) in data set [2] (off-target, on-target 25.00) turned out to be 16.7; in [4] (off-target, on-target 25.83) it was 18.1; in data set [1] (off-target) it was 17. Besides, the binding signal in data set [3] (RPB-ELISA) came out at 6.6e+07 luminescence. Turning to GGCAAAAAGAUCACUGUA [T_5 (in RNA_5)], the binding signal in data set [4] (RPB-ELISA) worked out at 6e+07 luminescence. Molecule GACAUGCCAACAUCAGUCUGAUAAGGACUG [RNA_6] gave a binding signal (log2 luminescence) in data set [3] (off-target, on-target 25.98) of 14.4. In the case of GACAUGCCACAAUGUGGCCGAGGACGACUG [RNA_7], in [1] (off-target cross-binding), the binding signal (log2 luminescence) was found to be 24.8.

Molecule GACAUGCCAACAUCAGUCUGAUAAGGACUG (ssRNA) [RNA_6] came in with a binding signal in data set [5] of 6.1e+06 luminescence. In the case of GACAUGCCACUAUUUAAGUUAUCAAGACUG (ssRNA) [RNA_9], the binding signal in [6] was determined as 4.7e+07 luminescence; in data set [7], 2.2e+06 luminescence. As for GACAUGCCACAAUGUGGCCGAGGACGACUG (ssRNA) [RNA_7], the binding signal in [8] came out at 1.9e+07 luminescence; in data set [9], 3.4e+07 luminescence.
